Laboratory results as given in the supplement of paper PMC12764529.
± gives the half width of the 95% confidence interval.

Assays:
[1] = folding stability dG unfold from trypsin proteolysis; higher = more stable
In short: (§1)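 How resistant each design was to proteolysis was captured as K50, inferred by Bayesian fitting of sequencing counts. Unfolding free energy was then derived relative to a sequence-predicted unfolded-state K50 and a shared folded-state K50, per protease or combined. Digestion used trypsin and chymotrypsin at 11 threefold-diluted concentrations plus a no-protease condition, on mini-proteins under 80 residues without cysteine in a PA-tagged cDNA display construct. Designs were kept only when AlphaFold2 dimer inter-PAE was above 15.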

[2] = folding stability dG unfold (combined trypsin and chymotrypsin); higher = more stable
In short: as §1

[3] = folding stability dG unfold from chymotrypsin proteolysis; higher = more stable
In short: as §1

Sequence | folding stability dG unfold [1] [kcal/mol] | folding stability dG unfold [2] [kcal/mol] | folding stability dG unfold [3] [kcal/mol]
SAGGSAGGSASNPKIISVENLGNYTVVLAEDPEDGSLVLVVINPDNNSALVFKDNKPVAVFSAGGSAGGSAG [r3_297_TrMRF] | 1.33 ± 0.025 | 1.45 ± 0.13 | 1.66 ± 0.11
SAGGSAGGSASPAPDTLYVPVVFDVVFPLPDGSYVLVPVLAYYQLPGGTLLASVRFAVTFDSAGGSAGGSAG [r3_484_TrMRF] | 2.77 ± 0.16 | 3.86 ± 0.2 | 4.28 ± 0.098
SAGGSAGGSASPIHATVSVDPETGTYTVHYPDGSTKTITGLSPEEVAALAKEMGIDEITLESAGGSAGGSAG [r3_78_JUSTAS] | 3 ± 0.08 | 2.81 ± 0.044 | 2.64 ± 0.034
SAGGSAGGSASPRTYKYKFTIKYPDGSTSEYEIVDEEDKAKEKIKKEYGAEEIELEIEPEESAGGSAGGSAG [r3_220_JUSTAS] | -0.218 ± 0.41 | 0.637 ± 0.28 | 1.39 ± 0.19
SAGGSAGGSASPSYLLTVTVYRPGGNPLSRRVFPPSVSPAEVEAWLATLPSDYSWEVSREPVSAGGSAGGSA [r18_431_JUSTAS] | 0.957 ± 0.051 | 2.59 ± 0.048 | 2.95 ± 0.022
SAGGSAGGSASSTLRTVRFPPDTPLEEVKEALAAEFPDRDPNIKILEVRPEDGGLVVTVEVVSAGGSAGGSA [r18_360_JUSTAS] | 1.51 ± 0.033 | 1.62 ± 0.057 | 1.58 ± 0.031
SAGGSAGGSASVVVTKETLPNGETRITTTTTTTTTVTVYDNNETVTTTTTTTTTTVVPKSLLSAGGSAGGSA [r18_34_JUSTAS] | 0.601 ± 0.055 | 1.38 ± 0.084 | 1.66 ± 0.039
SAGGSAGGSATIYIIMPPDDPIPPNMPIRLPDGKPVRIDVEPVPLEEDGGPIFRIEVEPGATSAGGSAGGSA [r18_476_TrROS] | -0.181 ± 0.12 | -0.03 ± 0.16 | 0.0617 ± 0.21
SAGGSAGGSATLTIDELRELLEKLGIDVEELSEEEIAELLKKLYPNARVERNENGELTIHPSAGGSAGGSAG [r3_375_TrROS_Hall] | 3.34 ± 0.096 | 2.99 ± 0.14 | 2.77 ± 0.12
SAGGSAGGSATPPDSSVSVKVEITVGGEKKLVTATLTTLPNGTTSLTLNFDIPPDKYELSLVSAGGSAGGSA [r18_428_JUSTAS] | 2.52 ± 0.11 | 2.51 ± 0.15 | 2.74 ± 0.09
SAGGSAGGSATQTIPFENPDGHPWTGTVEKRPDGMVKIDLTFPGGEKKEFYIPPGEEIRLPFSAGGSAGGSA [r18_115_TrROS] | 0.775 ± 0.057 | 0.42 ± 0.19 | 0.0335 ± 0.24
SAGGSAGGSATTIEITLPDGTKAVTLSTTSENSILLLVTAPDSPSLGFIDKNNPNNIILLKSAGGSAGGSAG [r3_450_JUSTAS] | 0.467 ± 0.054 | 0.627 ± 0.093 | 0.623 ± 0.1
SAGGSAGGSATVKIVETKVGADGAVYTTALVTLPNGGVLIVKTKTYPSGESETSVTLTSGKEFSAGGSAGGS [r12_995_TrMRF] | 2.21 ± 0.081 | 2 ± 0.071 | 1.74 ± 0.045
SAGGSAGGSAVITTETGGDSTVTTTTSLTGEGGTLTTTTTTTTTDGTTTTTTTTTDTGLSPTSSAGGSAGGS [r12_769_JUSTAS] | 2.41 ± 0.062 | 2.16 ± 0.034 | 1.99 ± 0.024
SAGGSAGGSAVVTLSPDGRRITITSRTVTYFKVTNTDDIAIETSVETVVTPLPSLGSPEVLASAGGSAGGSA [r18_6_JUSTAS] | 3.04 ± 0.13 | 2.56 ± 0.28 | 2.1 ± 0.098
SAGGSAGGSAWIPAKEIAKEIKAEYPPGKEREFRFPEEGWWIRIQVNKEGKPKVKVVPPEDISAGGSAGGSA [r18_61_TrROS] | 0.103 ± 0.19 | 0.109 ± 0.16 | 0.18 ± 0.17
SAGGSAGGSAWITINDVRDYLKKEGIDPKNMSAEEIASEFKDKWPNVNIEAQPNGSAWIKPSAGGSAGGSAG [r3_375_TrROS] | 0.785 ± 0.054 | 0.814 ± 0.14 | 0.535 ± 0.36
SAGGSAGGSAWMYRIKIEIYSNGKKHKYEFWIPEDNIDEVADQLPPGYKIKITDIEPWEPNSAGGSAGGSAG [r3_195_TrROS] | 1.82 ± 0.022 | 2.46 ± 0.14 | 2.73 ± 0.049
SAGGSAGGSAYIPAEEIAEEVAAVLPPDEVALFPLPEKPLVVLVVREEDGVPRVLVLPPELASAGGSAGGSA [r18_61_TrMRF] | 0.00934 ± 0.069 | 0.261 ± 0.082 | 0.367 ± 0.093
SAGGSAGGSAYTINIWVPPGMPKEEAADYIADWLHERHGIPDIKVSVEQDPDGMTKVTITVKSAGGSAGGSA [r18_1_TrROS] | 2.32 ± 0.14 | 2.52 ± 0.085 | 2.77 ± 0.033
SAGGSAGGSAYWRIKIFYPNNGREVTIHVPGSADDILDEAKPQFGYPPDNIKKIKIEPMDNSAGGSAGGSAG [r3_79_TrROS] | -0.409 ± 0.33 | 0.432 ± 0.21 | 0.783 ± 0.35
